Data taken from patent publication US20020173477A1.

Target: human Cε-containing IgE in serum of Hu-IgE transgenic mice (human Cε region and the H chain V region of the murine Mab BAT123) (human) (UniProt P01854)
Assay: cell-based or functional assay

IgE suppression in Hu-IgE transgenic mice infected with Ad-Hu-901 (mCγ2a,κ), day 4 post infection (free IgE ELISA): 40 to 90%
Substance: Hu-901 (mCγ2a,κ), intact anti-IgE antibody with humanized variable regions and murine constant regions (from UniProt P01863 1-330)
